The target of data set [1] is thrombin (Homo sapiens (Human)) (UniProt P00734). As to the kind of experiment: cell-based or functional assay.
The next data set concerns the target protein C (UniProt P04070).

Bounds are passed on as bounds.

Regarding “full-length thrombomodulin (from UniProt P07204 19-575) (receptor)”, in data set [1], the clotting time of fibrinogen by thrombin with thrombomodulin at saturating concentrations was below 305 min. For thrombin, in the data set with protein C, the “enzyme-mediated conversion of protein C into activated protein C (aPC), thrombin in the absence of TM” value was “minimal activated protein C (aPC) activity was generated”.

The record behind these values is US20180127735A1.
